Source: article PMC6282072

What was measured:
[1] = molecular target: porcine cardiac ventricular myosin (βmys) (porcine) (UniProt P79293)
[2] = molecular target: porcine cardiac ventricular myosin (βmys) (porcine) (UniProt P79293); remark: listed apart in the source

bovine ventricular actin (cardiac actin) (from UniProt Q3ZC07 1-377) (natural protein)
actin-activated myosin ATPase, Km (value of the running text) [1]: 3.6 µM
actin-activated myosin ATPase, Km (0.6 µM myosin titrated with 1–50 µM F-actin, 25 mM KCl, 21°C) [2]: 3.7 µM
